Results reported in the RNAGym collection of RNA variant scans (doi:10.1073/pnas.2313332121).

B1: TPR t1 (parent)
chain: GACCAAUCUGCCCUCAGAGCUCGAGAACAUCUUCGGAUGCAGAGGAGGCAGGCUUCGGUGGCGCGAUAGCGCCAACGUCCUCAACCUCCAAUGCAUCCCACCACAUGAUGAUGCCUGAAGAGCCUUGGUUUUUUG

Variants of: B1
Assay: polymerase ribozyme fitness, log enrichment relative to wild type (log ratio); higher = more active; in vitro selection for triplet polymerase activity
Method in brief: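 Input and output libraries were sequenced on Illumina after a single in vitro selection round, run in triplicate on PCR-built, transcribed mutant libraries of each subunit of a heterodimeric triplet polymerase ribozyme. Selection annealed libraries to a biotinylated primer, the partner subunit and triplets, incubated them frozen at −7 °C, then gel-excised extended constructs for streptavidin-bead capture and RT-PCR. Genotypes with ≥10 input reads and ≥1 read per output were kept. Fitness is the logarithm, taken in base 2, of genotype enrichment divided by wild-type enrichment, using inverse-variance-weighted replicate averages.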

Variant | polymerase ribozyme fitness (log ratio)
C70U A121C | 1.13
C70U A83U | -0.296
G71A A83U C115U C123G G135U | -4.34
G71A U129G | -2.44
A66U A68G | -3.88
A66U C98U | -1.9
C70G C124G | -0.578
A66C G69A C123U U126A | -4.63
G69U U87A C97A | -2.19
G71A A83G | -1.61
C70G C85A | -4.06
G69C U78C A84C | -2.73
G69C C72U | -0.189
G71C C97U G117C | -5.75
A66C A91U | -4.65
C70U C80U | -0.851
U67G C80G G113A | -6.86
A66U U106A G117A | -2
G69A G128C | -5.29
C64U G71U C88U | -5.13
C70U C80U A90C C98U | -5.92

Variant | polymerase ribozyme fitness (log ratio)
C70A C124A | -0.104
C70A C124U | -0.369
A68G G122A | -2.55
A66U C73U A83U A100U C123U U125G | -2.19
C70U C72A C85A | -2.03
C70U C114A G128U | -4.2
G69U C104U | 0.349
G69A G117A | -3.78
G69A G117C | -5.44
G69C G120U C123G | -0.319
G69A U78C A84C | -3.57
C70G G113U | -4.42
C70A C94U A100C | -2.44
C70A U130C | -2.15
G71A C94G | -2.57
A66C G113C | -3.98
G69A G113A G127C | -3.93
G71C C124G G128U | -1.25
C70U C104G | -7.05
C70G A84G | -5.21
C70U C85G U87A A111G G120A | -5.35

Variant | polymerase ribozyme fitness (log ratio)
C70G A103U G120A A121C C123U | -5.54
G71A C89G | -2.03
G71C C102U | -3.11
G69U C86U U109A C115G U126A | -7.39
G71A U78G A84U | -2.58
G69U C124G | 1.3
G69U C124A | 1.92
G69U C123A | 1.34
C70G C89U | -2.75
G71A C94U U96A | -2.05
G71A C86A A111C G113C | -5.65
G71A G127A | -2.33
G69C A118G | -1.23
C70U C72U A95C A111U | -5.58
G71A G117A | -1.44
C70U G117U A118U U130C | -3.8
G71A C73U | -2.15
C70A U126A | -2.53
C70A C79A | -3.11
C70A C79A A91C G120U | -7.09
G69C C101G | -3.84

Variant | polymerase ribozyme fitness (log ratio)
A66C U129A | -2.92
G71C C94A | -4.08
G71A A74G C88A C97A G117C | -5.77
C70U C76U U106C U133G | -1.64
C70G C73A | -4.66
A68U G117C | -6.92
G69A C82G | -3.32
G69U C114U U133A | -1.47
C70A C88U | -1.26
G69U U78A A83C C102G | -3.71
G69U C79U | -0.838
G71C C114U | -3.55
G71C C114A | -2.75
A66G C72A C79A A84U | -4.61
G69C G71U C97A A108C U109A | -5.19
C70G C123G | -0.392
C70G G135A | -3.36
A66U C123A | 0.285
C70G A111C | -3.24
C70G A111U | -5.55
A66U A84U C89U U112G | -2.3
